Measured values as given in patent US20230242620A1 (published 2023).

Assays:
Test in all cases: SPR Biacore T100, 21-4-3 captured on anti-mouse IgG, 500 nM analyte
[1] = molecular target: T1, SEQ ID NO: 37
T1 construct: no mutations
Description: (§1) Binding measurements were performed using a Biacore T100 using a CM5 T120416 sensor chip, with running buffer HBS-EP+, 25° C. […] The anti-mouse IgG used was a polyclonal rabbit anti-mouse IgG antibodies reacting with all IgG subclasses, IgA and IgM (GE Healthcare; Cat #BR-1008-38; Lot #10056316). Immobilisation of the anti-mouse IgG was performed using manual amine coupling using a 7 minute injection of EDC/NHS for activation and a 7 minute injection of 1M ethanolamine HCl pH 8.5 for deactivation (Biacore, amine coupling kit).

[2] = molecular target: T2, SEQ ID NO: 38
T2 construct: no mutations
Description: as §1

[3] = molecular target: T3, SEQ ID NO: 39
T3 construct: no mutations
Description: as §1

[4] = molecular target: T4, SEQ ID NO: 40
T4 construct: no mutations
Description: as §1

[5] = molecular target: T5, SEQ ID NO: 41
T5 construct: no mutations
Description: as §1

[6] = molecular target: T6, SEQ ID NO: 42
T6 construct: no mutations
Description: as §1

[7] = molecular target: T7, SEQ ID NO: 43
T7 construct: no mutations
Description: as §1

[8] = molecular target: T8, SEQ ID NO: 44
T8 construct: no mutations
Description: as §1

[9] = molecular target: T9, SEQ ID NO: 45
T9 construct: P14A, P41T, S62F, S74A, S82bN, R83K, L108Q
Description: as §1

[10] = molecular target: T10, SEQ ID NO: 47
T10 construct: no mutations
Description: as §1

[11] = molecular target: T11, SEQ ID NO: 48
T11 construct: no mutations
Description: as §1

[12] = molecular target: T12, SEQ ID NO: 49
T12 construct: V5L, I23A, E44G, A49S, A68T, A74S, T78L, W79Y, K83R, T110Q, Q108L
Description: as §1

[13] = molecular target: T13, SEQ ID NO: 52
T13 construct: S112G
Description: as §1

[14] = molecular target: T14, SEQ ID NO: 55
T14 construct: no mutations
Description: as §1

[15] = molecular target: T15, SEQ ID NO: 57
T15 construct: no mutations
Description: as §1

[16] = molecular target: T16, SEQ ID NO: 58
T16 construct: no mutations
Description: as §1

[17] = molecular target: T17, SEQ ID NO: 59
T17 construct: no mutations
Description: as §1

[18] = molecular target: T18, SEQ ID NO: 60
T18 construct: no mutations
Description: as §1

[19] = molecular target: T19, SEQ ID NO: 61
T19 construct: no mutations
Description: as §1

[20] = molecular target: T20, SEQ ID NO: 62
T20 construct: no mutations
Description: as §1

[21] = molecular target: T21, SEQ ID NO: 63
T21 construct: no mutations
Description: as §1

[22] = molecular target: T22, SEQ ID NO: 64
T22 construct: no mutations
Description: as §1

[23] = molecular target: T23, SEQ ID NO: 65
T23 construct: P14A
Description: as §1

[24] = molecular target: T24, SEQ ID NO: 66
T24 construct: L11S
Description: as §1

[25] = molecular target: T25, SEQ ID NO: 67
T25 construct: R83K
Description: as §1

[26] = molecular target: T26, SEQ ID NO: 68
T26 construct: P14A, L108Q
Description: as §1

[27] = molecular target: T27, SEQ ID NO: 69
T27 construct: L108Q
Description: as §1

[28] = molecular target: T28, SEQ ID NO: 70
T28 construct: T110Q
Description: as §1

[29] = molecular target: T29, SEQ ID NO: 71
T29 construct: S113G
Description: as §1

[30] = molecular target: T30, SEQ ID NO: 72
T30 construct: S112G, S113G
Description: as §1

[31] = molecular target: T31, SEQ ID NO: 73
T31 construct: S112G, S113G
Description: as §1

[32] = molecular target: T32, SEQ ID NO: 74
T32 construct: no mutations
Description: as §1

[33] = molecular target: T33, SEQ ID NO: 75
T33 construct: no mutations
Description: as §1

[34] = molecular target: T34, SEQ ID NO: 76
T34 construct: no mutations
Description: as §1

[35] = molecular target: T35, SEQ ID NO: 77
T35 construct: no mutations
Description: as §1

[36] = molecular target: T36, SEQ ID NO: 78
T36 construct: Q13R
Description: as §1

[37] = molecular target: T37, SEQ ID NO: 79
T37 construct: no mutations
Description: as §1

[38] = molecular target: T38, SEQ ID NO: 80
T38 construct: T110Q, S112G, S113G
Description: as §1

[39] = molecular target: T39, SEQ ID NO: 81
T39 construct: L11V
Description: as §1

[40] = molecular target: T40, SEQ ID NO: 82
T40 construct: P84A
Description: as §1

[41] = molecular target: T41, SEQ ID NO: 83
T41 construct: T87A
Description: as §1

[42] = molecular target: T42, SEQ ID NO: 84
T42 construct: S112G
Description: as §1

[43] = molecular target: T43, SEQ ID NO: 85
T43 construct: L11S, T110Q, S112G, S113G
Description: as §1

[44] = molecular target: T44, SEQ ID NO: 86
T44 construct: L11S, T110Q
Description: as §1

[45] = molecular target: T45, SEQ ID NO: 87
T45 construct: L11S, S112G, S113G
Description: as §1

[46] = molecular target: T46, SEQ ID NO: 88
T46 construct: L11S, T110Q
Description: as §1

[47] = molecular target: T47, SEQ ID NO: 89
T47 construct: L11S, P14A, T110Q, S112G, S113G
Description: as §1

T10 sequence (VHH, as listed by the source): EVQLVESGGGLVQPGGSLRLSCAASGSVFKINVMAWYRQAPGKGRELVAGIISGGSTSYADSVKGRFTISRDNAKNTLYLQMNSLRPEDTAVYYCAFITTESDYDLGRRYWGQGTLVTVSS
T23 sequence (VHH, as listed by the source): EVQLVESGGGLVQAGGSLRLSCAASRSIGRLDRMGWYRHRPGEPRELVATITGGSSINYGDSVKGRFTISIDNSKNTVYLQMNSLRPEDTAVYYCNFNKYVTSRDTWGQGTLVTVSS
T4 sequence (chain, as listed by the source): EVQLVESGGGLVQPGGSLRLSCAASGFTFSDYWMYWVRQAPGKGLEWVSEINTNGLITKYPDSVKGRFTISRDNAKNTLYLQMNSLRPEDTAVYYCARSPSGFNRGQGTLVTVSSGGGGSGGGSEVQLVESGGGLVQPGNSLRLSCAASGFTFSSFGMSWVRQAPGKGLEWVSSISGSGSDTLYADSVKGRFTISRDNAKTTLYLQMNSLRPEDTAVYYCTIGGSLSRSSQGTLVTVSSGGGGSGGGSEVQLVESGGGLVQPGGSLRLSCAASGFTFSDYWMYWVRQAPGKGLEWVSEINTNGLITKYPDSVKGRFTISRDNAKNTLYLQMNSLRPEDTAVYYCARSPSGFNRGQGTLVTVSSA
T18 sequence (chain, as listed by the source): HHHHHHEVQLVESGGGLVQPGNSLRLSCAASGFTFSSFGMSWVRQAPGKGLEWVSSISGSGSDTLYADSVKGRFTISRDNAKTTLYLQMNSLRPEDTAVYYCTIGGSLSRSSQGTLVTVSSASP
T9 sequence (VHH, as listed by the source): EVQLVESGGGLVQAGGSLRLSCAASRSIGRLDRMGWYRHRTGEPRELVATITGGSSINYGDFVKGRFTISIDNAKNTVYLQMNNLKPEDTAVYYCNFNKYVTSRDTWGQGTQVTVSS
T3 sequence (chain, as listed by the source): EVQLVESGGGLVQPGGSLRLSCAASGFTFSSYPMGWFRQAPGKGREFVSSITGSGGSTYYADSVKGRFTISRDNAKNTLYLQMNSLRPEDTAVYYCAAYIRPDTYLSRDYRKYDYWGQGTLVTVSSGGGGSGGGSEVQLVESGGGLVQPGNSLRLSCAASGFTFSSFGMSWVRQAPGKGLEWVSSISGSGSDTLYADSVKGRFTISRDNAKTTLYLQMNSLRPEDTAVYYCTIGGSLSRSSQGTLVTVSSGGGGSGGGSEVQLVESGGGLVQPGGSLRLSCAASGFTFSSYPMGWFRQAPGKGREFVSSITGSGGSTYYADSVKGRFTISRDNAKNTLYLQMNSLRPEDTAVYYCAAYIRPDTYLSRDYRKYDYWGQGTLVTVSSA
T11 sequence (VHH, as listed by the source): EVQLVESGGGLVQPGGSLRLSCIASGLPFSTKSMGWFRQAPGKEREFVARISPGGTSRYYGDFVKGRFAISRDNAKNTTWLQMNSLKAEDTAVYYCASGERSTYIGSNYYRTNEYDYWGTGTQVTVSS
T22 sequence (chain, as listed by the source): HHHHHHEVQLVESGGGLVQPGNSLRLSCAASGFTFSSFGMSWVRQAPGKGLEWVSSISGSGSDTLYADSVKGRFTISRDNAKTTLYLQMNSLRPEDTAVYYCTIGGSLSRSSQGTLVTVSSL
T40 sequence (VHH, as listed by the source): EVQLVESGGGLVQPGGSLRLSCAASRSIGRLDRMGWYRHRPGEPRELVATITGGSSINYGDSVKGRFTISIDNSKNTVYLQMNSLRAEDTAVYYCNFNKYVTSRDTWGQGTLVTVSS
T45 sequence (VHH, as listed by the source): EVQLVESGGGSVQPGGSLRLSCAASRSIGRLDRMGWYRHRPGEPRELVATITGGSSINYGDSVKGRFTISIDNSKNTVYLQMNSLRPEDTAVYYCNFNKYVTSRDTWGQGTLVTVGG
T6 sequence (chain, as listed by the source): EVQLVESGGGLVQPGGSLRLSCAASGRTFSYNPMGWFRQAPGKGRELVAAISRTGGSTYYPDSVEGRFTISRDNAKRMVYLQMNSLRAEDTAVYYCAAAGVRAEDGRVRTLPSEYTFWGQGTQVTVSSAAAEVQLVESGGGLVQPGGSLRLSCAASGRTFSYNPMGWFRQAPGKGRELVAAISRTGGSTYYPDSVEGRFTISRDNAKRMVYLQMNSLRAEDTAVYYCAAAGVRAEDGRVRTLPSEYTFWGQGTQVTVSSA
T36 sequence (VHH, as listed by the source): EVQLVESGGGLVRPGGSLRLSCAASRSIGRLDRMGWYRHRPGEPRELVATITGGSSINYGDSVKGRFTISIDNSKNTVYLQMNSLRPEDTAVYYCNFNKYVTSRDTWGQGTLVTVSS
T12 sequence (VHH, as listed by the source): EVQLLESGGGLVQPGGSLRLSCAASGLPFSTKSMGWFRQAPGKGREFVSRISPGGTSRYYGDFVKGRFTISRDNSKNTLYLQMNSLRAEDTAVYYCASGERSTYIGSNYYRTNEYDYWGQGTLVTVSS
T39 sequence (VHH, as listed by the source): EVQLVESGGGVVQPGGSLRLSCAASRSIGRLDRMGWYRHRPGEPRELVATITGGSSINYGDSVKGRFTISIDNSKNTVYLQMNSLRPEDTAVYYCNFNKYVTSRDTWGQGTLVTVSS
T29 sequence (VHH, as listed by the source): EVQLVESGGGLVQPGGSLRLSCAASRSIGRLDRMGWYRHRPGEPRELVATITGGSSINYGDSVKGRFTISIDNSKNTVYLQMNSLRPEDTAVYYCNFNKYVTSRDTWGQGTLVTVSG
T2 sequence (chain, as listed by the source): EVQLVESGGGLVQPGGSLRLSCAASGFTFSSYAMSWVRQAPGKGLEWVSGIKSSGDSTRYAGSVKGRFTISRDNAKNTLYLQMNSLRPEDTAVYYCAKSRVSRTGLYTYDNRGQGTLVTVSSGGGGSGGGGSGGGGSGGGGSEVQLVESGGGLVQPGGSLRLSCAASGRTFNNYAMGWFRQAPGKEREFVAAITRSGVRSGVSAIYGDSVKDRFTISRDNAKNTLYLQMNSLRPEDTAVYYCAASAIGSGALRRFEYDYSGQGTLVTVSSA
T28 sequence (VHH, as listed by the source): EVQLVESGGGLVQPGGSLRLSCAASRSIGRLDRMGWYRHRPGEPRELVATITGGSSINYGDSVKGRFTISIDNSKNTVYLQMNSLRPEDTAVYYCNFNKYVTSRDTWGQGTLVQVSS
T5 sequence (chain, as listed by the source): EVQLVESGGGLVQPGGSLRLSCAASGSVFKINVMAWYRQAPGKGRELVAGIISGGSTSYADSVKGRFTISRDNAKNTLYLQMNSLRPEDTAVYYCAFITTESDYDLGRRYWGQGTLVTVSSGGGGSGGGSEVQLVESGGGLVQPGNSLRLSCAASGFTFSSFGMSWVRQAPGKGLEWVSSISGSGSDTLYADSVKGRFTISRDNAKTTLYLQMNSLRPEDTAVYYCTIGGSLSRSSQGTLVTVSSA
T13 sequence (chain, as listed by the source): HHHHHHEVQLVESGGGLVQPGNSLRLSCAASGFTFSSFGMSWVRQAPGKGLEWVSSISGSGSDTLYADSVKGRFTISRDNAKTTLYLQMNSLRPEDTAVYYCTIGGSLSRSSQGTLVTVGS
T20 sequence (chain, as listed by the source): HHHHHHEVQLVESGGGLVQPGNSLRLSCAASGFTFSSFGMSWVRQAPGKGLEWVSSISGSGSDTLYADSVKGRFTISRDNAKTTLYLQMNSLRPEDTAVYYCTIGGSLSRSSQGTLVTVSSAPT
T14 sequence (chain, as listed by the source): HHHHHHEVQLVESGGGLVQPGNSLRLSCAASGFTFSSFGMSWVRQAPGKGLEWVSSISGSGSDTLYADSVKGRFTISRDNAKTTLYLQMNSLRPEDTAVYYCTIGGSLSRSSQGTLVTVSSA
T38 sequence (VHH, as listed by the source): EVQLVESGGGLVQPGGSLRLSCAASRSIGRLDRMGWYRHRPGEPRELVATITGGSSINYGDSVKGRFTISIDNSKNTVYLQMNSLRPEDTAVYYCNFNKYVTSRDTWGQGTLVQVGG
T41 sequence (VHH, as listed by the source): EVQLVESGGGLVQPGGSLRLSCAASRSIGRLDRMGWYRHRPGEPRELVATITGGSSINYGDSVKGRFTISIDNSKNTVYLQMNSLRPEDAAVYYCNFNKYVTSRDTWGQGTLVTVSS
T19 sequence (chain, as listed by the source): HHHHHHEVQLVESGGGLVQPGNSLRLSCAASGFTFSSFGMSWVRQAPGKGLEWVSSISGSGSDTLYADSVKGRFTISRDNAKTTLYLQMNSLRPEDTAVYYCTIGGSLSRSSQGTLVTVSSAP
T44 sequence (VHH, as listed by the source): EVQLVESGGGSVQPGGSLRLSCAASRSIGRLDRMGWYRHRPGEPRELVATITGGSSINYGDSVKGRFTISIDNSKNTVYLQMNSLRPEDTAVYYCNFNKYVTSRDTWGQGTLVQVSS
T43 sequence (VHH, as listed by the source): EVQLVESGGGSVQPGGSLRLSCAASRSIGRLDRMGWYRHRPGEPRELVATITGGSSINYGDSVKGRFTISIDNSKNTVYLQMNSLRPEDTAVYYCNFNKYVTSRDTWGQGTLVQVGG
T15 sequence (chain, as listed by the source): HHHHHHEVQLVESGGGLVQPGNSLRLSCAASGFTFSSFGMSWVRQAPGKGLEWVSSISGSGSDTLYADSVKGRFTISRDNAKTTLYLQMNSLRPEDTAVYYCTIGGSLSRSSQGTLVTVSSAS

B1: monoclonal antibody 21-4-3 (antibody, V domains shown)
VH: QIQLVQSGPELKKPGETVKISCKASGYTFTAYSMHWVKQAPGKGLKWMGWINTVTGEPAYADDFKGRFAFSLETSASTAYLQISSLKNEDTATYFCTRGLIHFYYWGQGTTLTVSS
VL: DIQMTQTPSSLSASLGGRVTITCKASQDIHNFISWYQHKPGKVPRLIIHDTSTLQPGIPSRFSGSGSGRDYSFSITNLEPEDIATYYCLHYDNLLRSFGGGTKLEIKR
notes: also called mAb21-4-3; mAb 21-4-3
[1]
  binding level as % of reference sequence (=100%): 7%
[2]
  binding level as % of reference sequence (=100%): 0%
[3]
  binding level as % of reference sequence (=100%): 0%
[4]
  binding level as % of reference sequence (=100%): 1%
[5]
  binding level as % of reference sequence (=100%): 7%
[6]
  binding level as % of reference sequence (=100%): 0%
[7]
  binding level as % of reference sequence (=100%): 3%
[8]
  binding level as % of reference sequence (=100%): 1%
[9]
  binding level as % of reference sequence (=100%): 22%
[10]
  binding level as % of reference sequence (=100%): 4%
[11]
  binding level as % of reference sequence (=100%): 3%
[12]
  binding level as % of reference sequence (=100%): 4%
[13]
  binding level as % of reference sequence (=100%): 100%
[14]
  binding level as % of reference sequence (=100%): 6%
[15]
  binding level as % of reference sequence (=100%): 6%
[16]
  binding level as % of reference sequence (=100%): 6%
[17]
  binding level as % of reference sequence (=100%): 6%
[18]
  binding level as % of reference sequence (=100%): 6%
[19]
  binding level as % of reference sequence (=100%): 6%
[20]
  binding level as % of reference sequence (=100%): 6%
[21]
  binding level as % of reference sequence (=100%): 3%
[22]
  binding level as % of reference sequence (=100%): 6%
[23]
  binding level as % of reference sequence (=100%): 23%
[24]
  binding level as % of reference sequence (=100%): 48%
[25]
  binding level as % of reference sequence (=100%): 101%
[26]
  binding level as % of reference sequence (=100%): 26%
[27]
  binding level as % of reference sequence (=100%): 106%
[28]
  binding level as % of reference sequence (=100%): 106%
[29]
  binding level as % of reference sequence (=100%): 44%
[30]
  binding level as % of reference sequence (=100%): 45%
[31]
  binding level as % of reference sequence (=100%): 1%
[32]
  binding level as % of reference sequence (=100%): 1%
[33]
  binding level as % of reference sequence (=100%): 1%
[34]
  binding level as % of reference sequence (=100%): 2%
[35]
  binding level as % of reference sequence (=100%): 1%
[36]
  binding level as % of reference sequence (=100%): 1%
[37]
  binding level as % of reference sequence (=100%): 2%
[38]
  binding level as % of reference sequence (=100%): 51%
[39]
  binding level as % of reference sequence (=100%): 75%
[40]
  binding level as % of reference sequence (=100%): 56%
[41]
  binding level as % of reference sequence (=100%): 79%
[42]
  binding level as % of reference sequence (=100%): 91%
[43]
  binding level as % of reference sequence (=100%): 32%
[44]
  binding level as % of reference sequence (=100%): 64%
[45]
  binding level as % of reference sequence (=100%): 41%
[46]
  binding level as % of reference sequence (=100%): 1%
[47]
  binding level as % of reference sequence (=100%): 2%
